The source of these data is article PMC11637429.

In this test the target is 6xHis-FoxR^peri-T192A (purified whole periplasmic region of FoxR with T192A) (P. aeruginosa). Put plainly: AUC; sedimentation velocity titration: FoxR^peri fixed at 10 μm, FoxA^SD at 1, 2, 5, 10, 20, 40 and 80 μm; sw isotherm (absorbance and interference) globally fitted in SEDPHAT to an A+B <-> AB model; 8°C, 20 mM Tris pH 8.3, 500 mM NaCl, 1 mM DTT, 3% glycerol.

Consider “6xHis-FoxA^SD (purified signaling domain of FoxA) (from UniProt Q9I116 53-820) (domain or fragment)”, for which the Kd came to 4.3 µM and the stoichiometry N came out at 1.

In general, Kd refers to a measure of binding affinity in units of concentration. The stoichiometry N is a count of units in the complex or per binding partner.
